Literature values as cited in article PMC6002756.

Key:
E-cadherin (X-dimer) ECD = E-cadherin (X-dimer) ECD (UniProt P12830)
E-cadherin ECD = E-cadherin ECD (UniProt P12830)

Sequence of E-cadherin (X-dimer) ECD (P12830 155-709): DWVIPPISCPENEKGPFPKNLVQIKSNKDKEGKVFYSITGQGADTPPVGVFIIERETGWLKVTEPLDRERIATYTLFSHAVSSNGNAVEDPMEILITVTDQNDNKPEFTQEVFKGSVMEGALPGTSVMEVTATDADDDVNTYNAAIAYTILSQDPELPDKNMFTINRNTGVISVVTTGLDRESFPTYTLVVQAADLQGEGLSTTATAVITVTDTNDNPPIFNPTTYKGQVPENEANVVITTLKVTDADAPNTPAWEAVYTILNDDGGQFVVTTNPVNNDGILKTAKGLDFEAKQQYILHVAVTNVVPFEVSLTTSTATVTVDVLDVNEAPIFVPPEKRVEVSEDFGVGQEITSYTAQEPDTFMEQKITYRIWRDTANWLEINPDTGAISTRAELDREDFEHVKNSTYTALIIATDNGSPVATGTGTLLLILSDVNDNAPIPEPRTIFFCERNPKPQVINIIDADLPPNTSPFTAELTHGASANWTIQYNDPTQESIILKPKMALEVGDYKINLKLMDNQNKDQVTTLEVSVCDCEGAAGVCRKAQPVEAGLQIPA
Sequence of E-cadherin ECD (P12830 155-709): as above

Substance | Kd (E-cadherin (X-dimer) ECD) | Kd (E-cadherin ECD)
E-cadherin (X-dimer) ECD (from UniProt P12830) | 900 µM | –
E-cadherin ECD (from UniProt P12830) | – | 100 µM
